Five molecules from patent US20180328920A1 (Hoffmann-La Roche, published 2018) can be followed below.

The target of experiment [1] is T1, Tim3-CLIP (human Tim3 extracellular domain - CLIP tag - Tim3 transmembrane region - Flag tag, on HEK293 cells) (human, CLIP tag labelled with CLIP-Red (FRET acceptor dye)).
T1 construct: also called Tim3 receptor on PD1+Tim3+ HEK cells
The experiment is described as follows: cell-based TR-FRET on PD1-SNAP/Tim3-CLIP HEK293 cells (FIG. 5). As for the experimental part: Transfected cells were sedimented and resuspended at a density of 1×10⁶ cells/ml in tag-Lite® buffer (Cisbio). Thereafter, cells were stained with 100 nM SNAP-Lumi4-Tb (Cisbio) and 100 nM CLIP-Red (Cisbio) for one hour at 37° C. in tag-Lite® buffer (Cisbio). After washing and re-suspending in PBS buffer comprising 2% FCS (v/v), about 50.000 cells (in 50 μl volume) were seeded into 96-well flat-bottom white plates (Costar) bevor either control antibody (e.g. a bivalent, monospecific antibody or an isotype control) or bispecific antibody was added to the cells at a final concentration of 0.001-10 nM. After an incubation for one hour at 4° C. or room temperature, time-resolved fluorescence was measured as ratio of the emission signal at 665 nm and 620 nm (665/620 nm ratio) with a BMG Pherastar reader or Tecan Infinite M1000 Pro using standard settings provided by the respective vendor.

The target of experiment [2] is T2, PD1-SNAP (human PD1 extracellular domain - SNAP tag - PD1 transmembrane region - Flag tag, on HEK293 cells) (human, SNAP tag labelled with SNAP-Lumi4-Tb (FRET donor dye)).
T2 construct: also called PD1 receptor on PD1+Tim3+ HEK cells
The experiment is described as follows: cell-based TR-FRET (Tag-lite) on HEK293 cells co-expressing PD1-SNAP and Tim3-CLIP; signal needs simultaneous binding of both.

The target in experiment [3] is T1, Tim3-CLIP (human Tim3 extracellular …). The description is as above.
In experiment [4] the target is T2, PD1-SNAP (human PD1 extracellular …). Nature of the experiment: cell-based TR-FRET on PD1-SNAP/Tim3-CLIP HEK293 cells, antibody at 0.01-40 nM, 1 h at 4 C (FIG. 6, diamond). The method, then:
(§1) Transfected cells were sedimented and resuspended at a density of 1×10⁶ cells/ml in tag-Lite® buffer (Cisbio). Thereafter, cells were stained with 100 nM SNAP-Lumi4-Tb (Cisbio) and 100 nM CLIP-Red (Cisbio) for one hour at 37° C. in tag-Lite® buffer (Cisbio). […] After an incubation for one hour at 4° C. or room temperature, time-resolved fluorescence was measured as ratio of the emission signal at 665 nm and 620 nm (665/620 nm ratio) with a BMG Pherastar reader or Tecan Infinite M1000 Pro using standard settings provided by the respective vendor.
(§2) To show the specificity of the FRET signal induced by simultaneous binding of the bispecific antibody, monoclonal IgGs of only one specificity were added for competition. Therefore, PD1 and Tim3 expressing HEK cells as described before were labelled with 100 nM SNAP-Lumi4-Tb and 100 nM CLIP-Red. […] A FRET signal was detected. To underline the specificity of FRET signal after bispecific antibody treatment, a monospecific, bivalent anti-PD1 monoclonal antibody was tested alone (FIG. 6, triangle). No FRET signal was detected. If the monospecific, bivalent anti-PD1 monoclonal antibody and the bispecific anti-PD1/Tim3 antibody were present (80 nM monospecific antibody concentration) no FRET signal was detected (FIG. 6, squares). Likewise no FRET signal was obtained if a bivalent, monospecific anti-Tim3 antibody was added (see FIG. 7).

The target in experiment [5] is T1, Tim3-CLIP (human Tim3 extracellular …). The experiment is described as above. The method, then: as §1, §2

B1: PD1-Tim3-0389 (bispecific antibody, human IgG1, kappa, L234A L235A)
heavy 1: not shown
heavy 2: EVQLQQSVAELVRPGASVKLSCTASGFNIKTTYMHWVKQRPEQGLEWIGRIDPADDNTKYAPKFQGKATITADTSSNTAYLQLSSLTSEDAAIYYCVRDFGYVAWFAYWGQGTLVTFSAASTKGPSVFPLAPSSKSTSGGTAALGCLVEDYFPEPVTVSWNSGALTSGVHTFPAVLQSSGLYSLSSVVTVPSSSLGTQTYICNVNHKPSNTKVDEKVEPKSCDKTHTCPPCPAPEAAGGPSVFLFPPKPKDTLMISRTPEVTCVVVDVSHEDPEVKFNWYVDGVEVHNAKTKPREEQYNSTYRVVSVLTVLHQDWLNGKEYKCKVSNKALGAPIEKTISKAKGQPREPQVCTLPPSRDELTKNQVSLSCAVKGFYPSDIAVEWESNGQPENNYKTTPPVLDSDGSFFLVSKLTVDKSRWQQGNVFSCSVMHEALHNRFTQKSLSLSPGK
light 1: EVILVESGGGLVKPGGSLKLSCAASGFSFSSYTMSWVRQTPEKRLDWVATISGGGRDIYYPDSVKGRFTISRDNAKNTLYLEMSSLMSEDTALYYCVLLTGRVYFALDSWGQGTSVTVSSASVAAPSVFIFPPSDEQLKSGTASVVCLLNNFYPREAKVQWKVDNALQSGNSQESVTEQDSKDSTYSLSSTLTLSKADYEKHKVYACEVTHQGLSSPVTKSFNRGEC
light 2: NIVMTPTPKFLPVSSGDRVTMTCRASQSVDNYVAWYQQKPGQSPKLLIYYASNRYIGVPDRFTGSGSGTDFTFTISSVQVEDLAVYFCQQHYSSPYTFGSGTKLEIKRTVAAPSVFIFPPSDRKLKSGTASVVCLLNNFYPREAKVQWKVDNALQSGNSQESVTEQDSKDSTYSLSSTLTLSKADYEKHKVYACEVTHQGLSSPVTKSFNRGEC
notes: also called bispecific anti-PD1/Tim3 antibody
Consider B1, for which the binding result in experiment [1] and in experiment [2] was “binds” throughout.

B2: PD1-Tim3-0359 (bispecific antibody, human IgG1, kappa, L234A L235A)
heavy: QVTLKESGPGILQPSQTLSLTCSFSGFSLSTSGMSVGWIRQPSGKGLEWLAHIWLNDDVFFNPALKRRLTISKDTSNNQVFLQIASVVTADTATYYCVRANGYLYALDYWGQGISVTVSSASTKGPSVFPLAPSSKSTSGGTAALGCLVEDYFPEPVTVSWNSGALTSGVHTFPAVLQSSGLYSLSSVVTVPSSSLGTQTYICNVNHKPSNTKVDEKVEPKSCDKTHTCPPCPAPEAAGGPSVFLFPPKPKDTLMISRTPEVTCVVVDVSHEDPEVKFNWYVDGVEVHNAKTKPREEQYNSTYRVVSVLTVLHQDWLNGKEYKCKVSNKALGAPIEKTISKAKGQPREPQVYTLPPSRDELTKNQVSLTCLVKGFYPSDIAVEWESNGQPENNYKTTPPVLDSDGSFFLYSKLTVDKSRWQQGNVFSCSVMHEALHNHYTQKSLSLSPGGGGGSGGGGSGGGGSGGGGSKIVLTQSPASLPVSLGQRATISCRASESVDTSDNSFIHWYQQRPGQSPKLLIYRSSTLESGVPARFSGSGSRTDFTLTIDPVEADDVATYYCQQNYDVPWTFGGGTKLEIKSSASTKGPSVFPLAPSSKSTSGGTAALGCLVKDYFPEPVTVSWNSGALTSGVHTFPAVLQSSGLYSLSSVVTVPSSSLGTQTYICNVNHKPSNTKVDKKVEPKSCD
light 1: QIVLTQSPAIMSASPGQKVTITCSASSSVNYTQWYQQKLGSSPKLWIYDAFKLAPGVPARFSGSGTGTSYSLTISSMEAEDAASYFCHQWSSYPWTFGGGTKLEIKRTVAAPSVFIFPPSDRKLKSGTASVVCLLNNFYPREAKVQWKVDNALQSGNSQESVTEQDSKDSTYSLSSTLTLSKADYEKHKVYACEVTHQGLSSPVTKSFNRGEC
light 2: B1 light 1
notes: also called 2+2 format bispecific antibody PD1-Tim3-0359
In the case of B2, the binding result in experiment [2] and in experiment [3] was “binds” throughout.

B3: PD1-Tim3-0168 (bispecific antibody, human IgG1, kappa, L234A L235A)
heavy 1: not shown
heavy 2: QVTLKESGPGILQPSQTLSLTCSFSGFSLSTSGMSVGWIRQPSGKGLEWLAHIWLNDDVFFNPALKRRLTISKDTSNNQVFLQIASVVTADTATYYCVRANGYLYALDYWGQGISVTVSSASTKGPSVFPLAPSSKSTSGGTAALGCLVEDYFPEPVTVSWNSGALTSGVHTFPAVLQSSGLYSLSSVVTVPSSSLGTQTYICNVNHKPSNTKVDEKVEPKSCDKTHTCPPCPAPEAAGGPSVFLFPPKPKDTLMISRTPEVTCVVVDVSHEDPEVKFNWYVDGVEVHNAKTKPREEQYNSTYRVVSVLTVLHQDWLNGKEYKCKVSNKALGAPIEKTISKAKGQPREPQVCTLPPSRDELTKNQVSLSCAVKGFYPSDIAVEWESNGQPENNYKTTPPVLDSDGSFFLVSKLTVDKSRWQQGNVFSCSVMHEALHNRFTQKSLSLSPGK
light 1: B1 light 1
light 2: B2 light 1
Consider B3, for which the binding result in experiment [4] and in experiment [5] was “binds” in each case.

B4: PD1-Tim3-0476 (bispecific antibody)
heavy 1: not shown
heavy 2: EVQLVESGGGLVQPGGSLRLSCAASGFNIKTTYMHWVRQAPGKGLEWVGRIDPADDNTKYAPKFQGKATISADTSKNTAYLQMNSLRAEDTAVYYCVRDFGYVAWFAYWGQGTLVTVSSASTKGPSVFPLAPSSKSTSGGTAALGCLVEDYFPEPVTVSWNSGALTSGVHTFPAVLQSSGLYSLSSVVTVPSSSLGTQTYICNVNHKPSNTKVDEKVEPKSCDKTHTCPPCPAPEAAGGPSVFLFPPKPKDTLMISRTPEVTCVVVDVSHEDPEVKFNWYVDGVEVHNAKTKPREEQYNSTYRVVSVLTVLHQDWLNGKEYKCKVSNKALGAPIEKTISKAKGQPREPQVCTLPPSRDELTKNQVSLSCAVKGFYPSDIAVEWESNGQPENNYKTTPPVLDSDGSFFLVSKLTVDKSRWQQGNVFSCSVMHEALHNHYTQKSLSLSPGK
light 1: EVQLLESGGGLVQPGGSLRLSCAASGFSFSSYTMSWVRQAPGKGLEWVATISGGGRDIYYPDSVKGRFTISRDNSKNTLYLQMNSLRAEDTAVYYCVLLTGRVYFALDSWGQGTLVTVSSASVAAPSVFIFPPSDEQLKSGTASVVCLLNNFYPREAKVQWKVDNALQSGNSQESVTEQDSKDSTYSLSSTLTLSKADYEKHKVYACEVTHQGLSSPVTKSFNRGEC
light 2: DIVMTQSPLSLPVTPGEPASISCRASQSVDNYVAWYLQKPGQSPQLLIYYASNRYIGVPDRFSGSGSGTDFTLKISRVEAEDVGVYYCQQHYSSPYTFGQGTKVEIKRTVAAPSVFIFPPSDRKLKSGTASVVCLLNNFYPREAKVQWKVDNALQSGNSQESVTEQDSKDSTYSLSSTLTLSKADYEKHKVYACEVTHQGLSSPVTKSFNRGEC
Take B4: the binding result in experiment [3] is listed as “binds”.

B5: PD1-Tim3-0477 (bispecific antibody)
heavy 1: not shown
heavy 2: QITLKESGPTLVKPTQTLTLTCTFSGFSLSTSGMSVGWIRQPPGKGLEWLAHIWLNDDVFFNPALKSRLTITKDTSKNQVVLTMTNMDPVDTATYYCVRANGYLYALDYWGQGTLVTVSSASTKGPSVFPLAPSSKSTSGGTAALGCLVEDYFPEPVTVSWNSGALTSGVHTFPAVLQSSGLYSLSSVVTVPSSSLGTQTYICNVNHKPSNTKVDEKVEPKSCDKTHTCPPCPAPEAAGGPSVFLFPPKPKDTLMISRTPEVTCVVVDVSHEDPEVKFNWYVDGVEVHNAKTKPREEQYNSTYRVVSVLTVLHQDWLNGKEYKCKVSNKALGAPIEKTISKAKGQPREPQVCTLPPSRDELTKNQVSLSCAVKGFYPSDIAVEWESNGQPENNYKTTPPVLDSDGSFFLVSKLTVDKSRWQQGNVFSCSVMHEALHNHYTQKSLSLSPGK
light 1: B4 light 1
light 2: DIQLTQSPSFLSASVGDRVTITCSASSSVSYTQWYQQKPGKAPKLWIYDAFKLAPGVPSRFSGSGSGTEFTLTISSLQPEDFATYFCHQWSSYPWTFGQGTKLEIKRTVAAPSVFIFPPSDRKLKSGTASVVCLLNNFYPREAKVQWKVDNALQSGNSQESVTEQDSKDSTYSLSSTLTLSKADYEKHKVYACEVTHQGLSSPVTKSFNRGEC
On to B5, for which the binding result in experiment [3] is reported as “binds”.
